Data taken from PMC7396596.

Target: Recombinant SCY2 (Scylla paramamosain)
Assay: SPR; Biacore T200, CM5 chip; rSCY2 immobilised (~1,000 RU); rScyreprocin 12.5-400 nM flowed over; multiple cycle kinetics, 25°C, 30 μl/min, HEPES-buffered saline

“His-tagged scyreprocin (rScyreprocin) (natural protein)” showed a Kd of 20.8 nM.
